One block for each binder: values may come before it.
B6: PSMGFR minus 10 amino acids from the C-terminus (peptide)
peptide: GTINVHDVETQFNQYKTEAASRYNLTISDVSVSDV
notes: also called C-10; C-10 PSMGFR

How the values were obtained:
[1] = molecular target: T1, PSMGFR peptide (Primary Sequence of the MUC1 Growth Factor Receptor); experiment: ELISA, peptide on plate (FIG. 2B)
T1 construct: Immobilised on ELISA plates or attached to 1 um or 4.5 um beads; also called MUC1* peptide; MUC1* PSMGFR peptide
T1 peptide: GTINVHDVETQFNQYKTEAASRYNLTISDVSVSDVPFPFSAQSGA
Method: (§1) FIGS. 2A-2F show results of ELISA assays. MUC1* peptides PSMGFR, PSMGFR minus 10 amino acids from the N-terminus aka N-10, or PSMGFR minus 10 amino acids from the C-terminus, aka C-10 are immobilized on the plate and the following are assayed for binding: NME7-AB (A), MN-C2 monoclonal antibody (B), MN-E6 monoclonal antibody (C), or dimeric NME1 (D). […] MUC1* peptides PSMGFR minus 10 amino acids from the N-terminus aka N-10, or PSMGFR minus 10 amino acids from the C-terminus, aka C-10, are immobilized on the plate and the following are assayed for binding: MN-C3 (E) and MN-C8 (F).

[2] = molecular target: T2, PSMGFR minus 10 amino acids from the N-terminus; experiment: competitive ELISA, peptide on plate (FIG. 3C)
T2 construct: also called N-10; N-10 PSMGFR
T2 peptide: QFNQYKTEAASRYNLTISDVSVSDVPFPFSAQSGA
Method: FIGS. 3A-3C show results of competitive ELISA assays. The PSMGFR MUC1* peptide is immobilized on the plate and dimeric NM23-H1, aka NME1, is added either alone or after the MN-E6 antibody has been added (A). The same experiment was performed wherein NM23-H7, NME7-AB, is added alone or after MN-E6 has been added (B). […] In a similar experiment (C), PSMGFR or PSMGFR minus 10 amino acids from the N-terminus, aka N-10, is immobilized on the plate. Dimeric NM23-H1 is then added. Anti-MUC1* antibodies MN-E6, MN-C2, MN-C3 or MN-C8 are then tested for their ability to compete off the NM23-H1.

[3] = molecular target: T1, PSMGFR peptide (Primary Sequence of the …); experiment: ELISA, peptide immobilised on plate (FIG. 22A)
Method: (§2) FIGS. 22A-22C show graphs of ELISAs wherein the assay plate surface was immobilized with either PSMGFR peptide, PSMGFR minus 10 amino acids from the N-terminus or minus 10 amino acids from the C-terminus. The MN-C3 antibody variants were then assayed for binding to the various MUC1* peptides. A) Purified mouse monoclonal MN-C3 antibody; B) Impure humanized MN-C3 antibody; and C) the humanized MN-C3 scFv-Fc. ELISAs show binding to the PSMGFR peptide as well as to certain deletion peptides.

[4] = molecular target: B6; experiment: ELISA, N-10 and C-10 peptides on plate (FIG. 2E)
Method: as §1

[5] = molecular target: T1, PSMGFR peptide (Primary Sequence of the …); experiment: ELISA, peptide immobilised on plate (FIG. 22B)
Method: as §2

[6] = molecular target: T2, PSMGFR minus 10 amino acids from the …; experiment: selection screens
[7] = molecular target: T1, PSMGFR peptide (Primary Sequence of the …); experiment: ELISA, peptide on plate (FIG. 2C)
Method: as §1

[8] = molecular target: T1, PSMGFR peptide (Primary Sequence of the …); experiment: ELISA, PSMGFR on surface (FIG. 12)
NME7-AB = molecular target: T3, NME7-AB (human, UniProt Q9Y5B8 92-376); experiment: ELISA, peptide immobilised on plate (FIG. 2A)
T3 construct: also called NM23-H7
T3 sequence: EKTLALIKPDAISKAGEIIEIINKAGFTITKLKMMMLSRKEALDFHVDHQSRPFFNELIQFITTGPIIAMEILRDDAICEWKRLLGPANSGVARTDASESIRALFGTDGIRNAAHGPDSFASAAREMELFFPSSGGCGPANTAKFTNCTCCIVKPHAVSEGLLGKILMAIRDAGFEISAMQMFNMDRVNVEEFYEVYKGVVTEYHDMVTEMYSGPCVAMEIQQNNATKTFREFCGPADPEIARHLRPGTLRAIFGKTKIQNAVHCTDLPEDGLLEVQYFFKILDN
Method: as §1

dimeric NME1 = molecular target: T4, dimeric NME1 (human, UniProt P15531 1-152, limits assumed); experiment: ELISA, peptide immobilised on plate (FIG. 2D)
T4 construct: Used in dimer form; also called NM23-H1 dimers; dimeric NM23-H1
T4 sequence (P15531 whole entry): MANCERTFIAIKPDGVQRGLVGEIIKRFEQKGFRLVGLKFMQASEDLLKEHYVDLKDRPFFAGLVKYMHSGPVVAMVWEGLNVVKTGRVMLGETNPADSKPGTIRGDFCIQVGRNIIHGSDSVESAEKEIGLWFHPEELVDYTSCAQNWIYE
Method: as §1

[9] = molecular target: T1, PSMGFR peptide (Primary Sequence of the …); experiment: ELISA, surface coated with PSMGFR peptide
Method: Humanized MN-C2 scFv is then incubated with the surface, washed and detected according to standard methods.

B1: mouse monoclonal antibody MN-C2 (antibody, V domains shown)
VH: EVQLEESGGGLVKPGGSLKLSCAASGFTFSGYAMSWVRQTPEKRLEWVATISSGGTYIYYPDSVKGRFTISRDNAKNTLYLQMSSLRSEDTAMYYCARLGGDNYYEYFDVWGAGTTVTVSS
VL: DIVITQSTASLGVSLGQRATISCRASKSVSTSGYSYMHWYQQRPGQPPKLLIYLASNLESGVPARFSGSGSGTDFTLNIHPVEEEDAATYYCQHSRELPFTFGGGTKLEIKR
notes: also called Min-C2
binding result [1]: binds
binding result [2]: binds

B2: mouse monoclonal antibody MN-C3 (antibody, V domains shown)
VH: QVQLQQSGPELVRPGVSVKISCKGSGYRFTDYAMNWVKQSHAKSLEWIGVISTFSGNTNFNQKFKGKATMTVDKSSSTAYMELARLTSEDSAMYYCARSDYYGPYFDYWGQGTTLTVSS
VL: DVLMTQTPLSLPVSLGDQASISCRSSQTIVHSNGNTYLEWYLQKPGQSPKLLIYKVSNRFSGVPDRFSGSGSGTDFTLKINRVEAEDLGVYYCFQGSHVPFTFGSGTKLEIK
notes: also called Min-C3
binding result [2]: binds
binding result [3]: binds
binding result [4]: binds

B3: humanized MN-C3 antibody (impure preparation) (antibody, V domains shown)
VH: QVQLVQSGAEVKKPGASVKVSCKASGYTFTDYAMNWVRQAPGQGLEWMGVISTFSGNTNFNQKFKGRVTMTTDTSTSTAYMELRSLRSDDTAVYYCARSDYYGPYFDYWGQGTTLTVSS
VL: DIVMTQTPLSLSVTPGQPASISCRSSQTIVHSNGNTYLEWYLQKPGQSPQLLIYKVSNRFSGVPDRFSGSGSGTDFTLKISRVEAEDVGVYYCFQGSHVPFTFGGGTKVEIKR
notes: also called Impure humanized MN-C3 antibody
binding result [5]: binds

Binder: B6
binding result (NME7-AB): no binding
binding result (dimeric NME1): no binding

The next lines start with the values.

binding result [6]: binds
binding result [7]: binds
B4: mouse monoclonal antibody MN-E6 (antibody, V domains shown)
VH: EVKVVESGGDLVKPGGSLKLSCVVSGFTFSRYGMSWVRQTPGKRLEWVATISGGGTYIYYPDSVKGRFTISRDNAKNTLYLQMSSLKSEDTAMYHCTRDNYGRNYDYGMDYWGQGTSVTVSS
VL: QIVLTQSPAIMSASPGEEVTLTCSATSSVSYIHWFQQRPGTSPKLWIYSTSNLASGVPVRFSGSGYGTSYSLTISRMEAEDAATYYCQQRSSSPFTFGSGTKLEIK
notes: also called Min-E6; parent MN-E6 antibody

binding result [8]: binds
B5: humanized MN-E6 scFv (scFv, V domains shown, not shown: small tags and cut ends)
VH: EVQLVESGGGLVKPGGSLRLSCAASGFTFSRYGMSWVRQAPGKRLEWVSTISGGGTYIYYPDSVKGRFTISRDNAKNTLYLQMNSLRAEDTAVYYCTRDNYGRNYDYGMDYWGQGTLVTVSS
VL: EIVLTQSPATLSLSPGERATLTCSATSSVSYIHWYQQRPGQSPRLLIYSTSNLASGIPARFSGSGSGSDYTLTISSLEPEDFAVYYCQQRSSSPFTFGSGTKVEIK
notes: also called hu MN-E6 scFv

EC50 [9]: ~333 nM
B7: humanized MN-C2 scFv (scFv, V domains shown, not shown: small tags and cut ends)
VH: EVQLVESGGGLVKPGGSLRLSCAASGFTFSGYAMSWVRQAPGKGLEWVSTISSGGTYIYYPDSVKGRFTISRDNAKNSLYLQMNSLRAEDTAVYYCARLGGDNYYEYFDVWGKGTTVTVSS
VL: DIVLTQSPASLAVSPGQRATITCRASKSVSTSGYSYMHWYQQKPGQPPKLLIYLASNLESGVPARFSGSGSGTDFTLTINPVEANDTANYYCQHSRELPFTFGGGTKVEIKR
notes: also called huMN-C2 scFv; hMN-C2 scFv

Source: patent US20190290692A1 (MINERVA BIOTECHNOLOGIES, published 2019)
